# Test results as given in patent US20130157934A1 (INDIANA UNIVERSITY RESEARCH AND TECHNOLOGY, published 2013).
# Where two headings read alike, the source gives them in different places. Starred links: 1 amine or outer side, 2 acyl side, 3 side chain; linkers in the order of their positions; H or OH if unused. Positions of bridges follow the written chain, without caps; N, C: chain ends. Non-standard residues stand in square brackets, D forms with d. Groups on a side chain read outwards from the residue. No end group written: not given here. estradiol (3-ether, amide-linked) = estradiol attached through its 3-position ether, via an amide; PhLac = O=C(O)[C@@H](O)Cc1ccccc1; Suc = O=C(CCC(=O)[*:2])[*:1]; Aib = CC(C)(N)C(=O)O
# Experiments:
# Assay in all cases: cell-based or functional assay
# GLP-1 receptor [1] = target: T1, GLP-1 receptor (UniProt P43220 24-463, limits assumed)
# glucagon receptor [2] = target: T2, glucagon receptor (UniProt P47871 26-477, limits assumed)
# GLP-1 receptor [3] = target: T1, GLP-1 receptor; remark: listed apart in the source
# Target sequence in this assay (P43220 24-463 limits assumed): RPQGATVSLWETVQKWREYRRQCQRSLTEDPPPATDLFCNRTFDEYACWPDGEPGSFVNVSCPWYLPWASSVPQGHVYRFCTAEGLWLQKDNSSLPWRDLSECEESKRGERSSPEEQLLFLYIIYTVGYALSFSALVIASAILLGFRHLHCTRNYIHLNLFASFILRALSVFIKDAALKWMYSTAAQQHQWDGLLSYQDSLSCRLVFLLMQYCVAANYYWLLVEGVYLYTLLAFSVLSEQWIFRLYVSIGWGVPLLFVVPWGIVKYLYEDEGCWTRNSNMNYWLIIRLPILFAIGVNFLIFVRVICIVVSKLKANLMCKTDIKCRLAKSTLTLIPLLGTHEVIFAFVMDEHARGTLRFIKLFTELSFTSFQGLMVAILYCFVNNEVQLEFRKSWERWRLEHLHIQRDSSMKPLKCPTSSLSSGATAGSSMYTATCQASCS
# glucagon receptor [4] = target: T2, glucagon receptor; remark: listed apart in the source
# GLP-1 receptor [5] = target: T1, GLP-1 receptor; remark: listed apart in the source
# Target sequence in this assay (P43220 24-463 limits assumed): as above
# GLP-1 receptor [6] = target: T1, GLP-1 receptor; remark: listed apart in the source
# glucagon receptor [7] = target: T2, glucagon receptor; remark: listed apart in the source
# GLP-1 receptor [8] = target: T1, GLP-1 receptor; remark: listed apart in the source
# glucagon receptor [9] = target: T2, glucagon receptor; remark: listed apart in the source
# glucagon receptor [10] = target: glucagon receptor (UniProt P47871)
# glucagon receptor [11] = target: glucagon receptor (UniProt P47871); remark: listed apart in the source
# GLP-1 receptor [12] = target: GLP-1 receptor (UniProt P43220)
# Sequence of GLP-1 receptor (UniProt P43220) (P43220 24-463 limits assumed): as above
# T2 sequence (P47871 26-477 limits assumed): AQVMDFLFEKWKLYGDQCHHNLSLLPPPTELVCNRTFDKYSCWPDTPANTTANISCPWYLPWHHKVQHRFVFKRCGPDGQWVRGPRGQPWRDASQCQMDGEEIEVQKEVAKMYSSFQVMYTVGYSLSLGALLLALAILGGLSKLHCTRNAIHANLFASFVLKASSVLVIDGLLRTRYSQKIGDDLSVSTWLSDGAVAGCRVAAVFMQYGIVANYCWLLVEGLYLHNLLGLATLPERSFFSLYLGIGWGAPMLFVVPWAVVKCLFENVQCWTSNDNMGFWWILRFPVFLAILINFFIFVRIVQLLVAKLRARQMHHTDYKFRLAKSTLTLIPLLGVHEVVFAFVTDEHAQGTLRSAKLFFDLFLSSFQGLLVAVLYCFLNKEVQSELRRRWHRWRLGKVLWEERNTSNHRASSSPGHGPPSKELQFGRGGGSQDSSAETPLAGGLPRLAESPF
# Sequence of glucagon receptor (UniProt P47871) (P47871 26-477 limits assumed): as above
binder,measurement,setting,value
"GTFTSEYSKYLDERRAKDFVQWLMDT-NH2 (lactam 13-17; N-terminus assumed; SMILES CSCC[C@H](NC(=O)[C@H](CC(C)C)NC(=O)[C@H](Cc1c[nH]c2ccccc12)NC(=O)[C@H](CCC(N)=O)NC(=O)[C@@H](NC(=O)[C@H](Cc1ccccc1)NC(=O)[C@H](CC(=O)O)NC(=O)[C@@H]1CCCCNC(=O)CC[C@H](NC(=O)[C@H](CC(=O)O)NC(=O)[C@H](CC(C)C)NC(=O)[C@H](Cc2ccc(O)cc2)NC(=O)[C@H](CCCCN)NC(=O)[C@H](CO)NC(=O)[C@H](Cc2ccc(O)cc2)NC(=O)[C@H](CCC(=O)O)NC(=O)[C@H](CO)NC(=O)[C@@H](NC(=O)[C@H](Cc2ccccc2)NC(=O)[C@@H](NC(=O)CN)[C@@H](C)O)[C@@H](C)O)C(=O)N[C@@H](CCCNC(=N)N)C(=O)N[C@@H](CCCNC(=N)N)C(=O)N[C@@H](C)C(=O)N1)C(C)C)C(=O)N[C@@H](CC(=O)O)C(=O)N[C@H](C(N)=O)[C@@H](C)O) [[E9, E16K20(lactam), D28]G(4~29)]",GLP-1 EC50,GLP-1 receptor [1],151 nM
same,Glucagon IC50,glucagon receptor [2],10 to 30 nM
"[PhLac]TSDYSKYLDERRAKDFVEWLMDT-NH2 (lactam 15-19; N-terminus assumed; SMILES CSCC[C@H](NC(=O)[C@H](CC(C)C)NC(=O)[C@H](Cc1c[nH]c2ccccc12)NC(=O)[C@@H]1CCC(=O)NCCCC[C@H](NC(=O)[C@H](C)NC(=O)[C@H](CCCNC(=N)N)NC(=O)[C@H](CCCNC(=N)N)NC(=O)[C@H](CCC(=O)O)NC(=O)[C@H](CC(=O)O)NC(=O)[C@H](CC(C)C)NC(=O)[C@H](Cc2ccc(O)cc2)NC(=O)[C@H](CCCCN)NC(=O)[C@H](CO)NC(=O)[C@H](Cc2ccc(O)cc2)NC(=O)[C@H](CC(=O)O)NC(=O)[C@H](CO)NC(=O)[C@@H](NC(=O)[C@@H](O)Cc2ccccc2)[C@@H](C)O)C(=O)N[C@@H](CC(=O)O)C(=O)N[C@@H](Cc2ccccc2)C(=O)N[C@@H](C(C)C)C(=O)N1)C(=O)N[C@@H](CC(=O)O)C(=O)N[C@H](C(N)=O)[C@@H](C)O) [[PLA6, D9, E16, K20E24(Lactam), D28]G(6-29)]",GLP-1 EC50,GLP-1 receptor [3],239 nM
same,Glucagon IC50,glucagon receptor [4],74 nM
[dA][Aib][dE]G[dT][dF][dT][dS][dD][dV][dS][dS][dY][dL][dE]G[dQ][dA][dA][dK][dE][dA][dI][dA][dW][dL][dV][dK]GG[dP][dS][dS]G[dA][dP][dP][dP][dS]K([Suc-estradiol])-NH2 [Inactive GLP-1 (d-amino acid containing)/Estrogen(3-ester)],"GLP-1 EC50 (cAMP induction, CRE-luciferase in HEK293 cells)",GLP-1 receptor [5],562 nM
"AEGTFTSEYSKYLDERRAKDFVQWLMDT-NH2 (lactam 15-19) [[A2E3, E16K20(Lactam), D28]G(2~29)]",Glucagon IC50,glucagon receptor [2],63 nM
"HAEGTFTSEYSKYLDERRAKDFVQWLMDT-NH2 (lactam 16-20; N-terminus assumed; SMILES CSCC[C@H](NC(=O)[C@H](CC(C)C)NC(=O)[C@H](Cc1c[nH]c2ccccc12)NC(=O)[C@H](CCC(N)=O)NC(=O)[C@@H](NC(=O)[C@H](Cc1ccccc1)NC(=O)[C@H](CC(=O)O)NC(=O)[C@@H]1CCCCNC(=O)CC[C@H](NC(=O)[C@H](CC(=O)O)NC(=O)[C@H](CC(C)C)NC(=O)[C@H](Cc2ccc(O)cc2)NC(=O)[C@H](CCCCN)NC(=O)[C@H](CO)NC(=O)[C@H](Cc2ccc(O)cc2)NC(=O)[C@H](CCC(=O)O)NC(=O)[C@H](CO)NC(=O)[C@@H](NC(=O)[C@H](Cc2ccccc2)NC(=O)[C@@H](NC(=O)CNC(=O)[C@H](CCC(=O)O)NC(=O)[C@H](C)NC(=O)[C@@H](N)Cc2c[nH]cn2)[C@@H](C)O)[C@@H](C)O)C(=O)N[C@@H](CCCNC(=N)N)C(=O)N[C@@H](CCCNC(=N)N)C(=O)N[C@@H](C)C(=O)N1)C(C)C)C(=O)N[C@@H](CC(=O)O)C(=O)N[C@H](C(N)=O)[C@@H](C)O) [[A2E3, E16K20(Lactam), D28]G(1~29)]",GLP-1 EC50,GLP-1 receptor [1],0.2 nM
same,Glucagon IC50,glucagon receptor [2],130 nM
HSQGTFTSDYARYLDARRAREFIKWLVRGRG [ANK2 (Bayer peptide)],GLP-1 EC50,GLP-1 receptor [1],0.28 nM
"FTSDYSKYLDERRAQDFVQWLMNTGPSSGAPPPS-NH2 (lactam 7-11; not fully specified) [D9, K12E16(Lactam) glucagon(6-39) Cex peptide]",GLP-1 EC50,GLP-1 receptor [6],18 nM
same,Glucagon IC50,glucagon receptor [7],828 nM
same,GLP-1 EC50,GLP-1 receptor [8],119 nM
same,Glu IC50,glucagon receptor [9],828 nM
"[dA][Aib][dE]G[dT][dF][dT][dS][dD][dV][dS][dS][dY][dL][dE]G[dQ][dA][dA][dK][dE][dA][dI][dA][dW][dL][dV][dK]GG[dP][dS][dS]G[dA][dP][dP][dP][dS]K(estradiol (3-ether, amide-linked))-NH2 [Inactive GLP-1 (d-amino acid containing)/Estrogen(3-ether)]","GLP-1 EC50 (cAMP induction, CRE-luciferase in HEK293 cells)",GLP-1 receptor [5],418 nM
"FTSEYSKYLDERRAKDFVQWLMNTGPSSGAPPPS-NH2 (lactam 11-15; N-terminus assumed; SMILES CSCC[C@H](NC(=O)[C@H](CC(C)C)NC(=O)[C@H](Cc1c[nH]c2ccccc12)NC(=O)[C@H](CCC(N)=O)NC(=O)[C@@H](NC(=O)[C@H](Cc1ccccc1)NC(=O)[C@H](CC(=O)O)NC(=O)[C@@H]1CCCCNC(=O)CC[C@H](NC(=O)[C@H](CC(=O)O)NC(=O)[C@H](CC(C)C)NC(=O)[C@H](Cc2ccc(O)cc2)NC(=O)[C@H](CCCCN)NC(=O)[C@H](CO)NC(=O)[C@H](Cc2ccc(O)cc2)NC(=O)[C@H](CCC(=O)O)NC(=O)[C@H](CO)NC(=O)[C@@H](NC(=O)[C@@H](N)Cc2ccccc2)[C@@H](C)O)C(=O)N[C@@H](CCCNC(=N)N)C(=O)N[C@@H](CCCNC(=N)N)C(=O)N[C@@H](C)C(=O)N1)C(C)C)C(=O)N[C@@H](CC(N)=O)C(=O)N[C@H](C(=O)NCC(=O)N1CCC[C@H]1C(=O)N[C@@H](CO)C(=O)N[C@@H](CO)C(=O)NCC(=O)N[C@@H](C)C(=O)N1CCC[C@H]1C(=O)N1CCC[C@H]1C(=O)N1CCC[C@H]1C(=O)N[C@@H](CO)C(N)=O)[C@@H](C)O) [E9, E16K20(lactam) glucagon(6-39) Cex peptide]",GLP-1 EC50,GLP-1 receptor [6],36 nM
same,Glucagon IC50,glucagon receptor [7],42 nM
same,GLP-1 EC50,GLP-1 receptor [8],36 nM
same,Glu IC50,glucagon receptor [9],42 nM
"FTSEYSKYLDERRAQDFVQWLMNTGPSSGAPPPS-NH2 (lactam 7-11; N-terminus assumed; SMILES CSCC[C@H](NC(=O)[C@H](CC(C)C)NC(=O)[C@H](Cc1c[nH]c2ccccc12)NC(=O)[C@H](CCC(N)=O)NC(=O)[C@@H](NC(=O)[C@H](Cc1ccccc1)NC(=O)[C@H](CC(=O)O)NC(=O)[C@H](CCC(N)=O)NC(=O)[C@H](C)NC(=O)[C@H](CCCNC(=N)N)NC(=O)[C@H](CCCNC(=N)N)NC(=O)[C@@H]1CCC(=O)NCCCC[C@H](NC(=O)[C@H](CO)NC(=O)[C@H](Cc2ccc(O)cc2)NC(=O)[C@H](CCC(=O)O)NC(=O)[C@H](CO)NC(=O)[C@@H](NC(=O)[C@@H](N)Cc2ccccc2)[C@@H](C)O)C(=O)N[C@@H](Cc2ccc(O)cc2)C(=O)N[C@@H](CC(C)C)C(=O)N[C@@H](CC(=O)O)C(=O)N1)C(C)C)C(=O)N[C@@H](CC(N)=O)C(=O)N[C@H](C(=O)NCC(=O)N1CCC[C@H]1C(=O)N[C@@H](CO)C(=O)N[C@@H](CO)C(=O)NCC(=O)N[C@@H](C)C(=O)N1CCC[C@H]1C(=O)N1CCC[C@H]1C(=O)N1CCC[C@H]1C(=O)N[C@@H](CO)C(N)=O)[C@@H](C)O) [E9, K12E16(lactam) glucagon(6-39) Cex peptide]",GLP-1 EC50,GLP-1 receptor [6],63 nM
same,Glucagon IC50,glucagon receptor [7],2010 nM
same,GLP-1 EC50,GLP-1 receptor [8],63 nM
same,Glu IC50,glucagon receptor [9],2010 nM
"FTSEYSKYLDERRAQDFVQWLMNTGPSSGAPPPS-NH2 [E9, K12, E16 glucagon(6-39) Cex peptide]",Glucagon IC50,glucagon receptor [7],762 nM
same,Glu IC50,glucagon receptor [9],762 nM
"XTSEYSKYLDERRAQDFVQWLMNTGPSSGAPPPS (not fully specified; X1 = PLA (phenyl lactic acid in place of Phe 6 of glucagon); lactam bridge K12-E16 (glucagon numbering; residues 7 and 11 of this chain)) [[PLA6, E9, K12E16(Lactam)] glucagon(6-39) Cex peptide]",Glu IC50,glucagon receptor [10],72 nM
same,Glucagon IC50,glucagon receptor [11],72 nM
same,GLP-1 EC50,GLP-1 receptor [12],6 nM
"[PhLac]TSDYSKYLDERRAKDFVQWLMDT-NH2 (lactam 11-15) [[PLA6, D9, E16K20(lactam), D28]G(6-29)]",Glucagon IC50,glucagon receptor [2],10 to 30 nM
same,GLP-1 EC50,GLP-1 receptor [6],4 nM
same,Glucagon IC50,glucagon receptor [7],6 nM
"[PhLac]TSDYSKYLDERRAQDFVEWLMKT-NH2 (lactam 19-23; N-terminus assumed; SMILES CSCC[C@@H]1NC(=O)[C@H](CC(C)C)NC(=O)[C@H](Cc2c[nH]c3ccccc23)NC(=O)[C@@H](NC(=O)[C@@H](NC(=O)[C@H](Cc2ccccc2)NC(=O)[C@H](CC(=O)O)NC(=O)[C@H](CCC(N)=O)NC(=O)[C@H](C)NC(=O)[C@H](CCCNC(=N)N)NC(=O)[C@H](CCCNC(=N)N)NC(=O)[C@H](CCC(=O)O)NC(=O)[C@H](CC(=O)O)NC(=O)[C@H](CC(C)C)NC(=O)[C@H](Cc2ccc(O)cc2)NC(=O)[C@H](CCCCN)NC(=O)[C@H](CO)NC(=O)[C@H](Cc2ccc(O)cc2)NC(=O)[C@H](CC(=O)O)NC(=O)[C@H](CO)NC(=O)[C@@H](NC(=O)[C@@H](O)Cc2ccccc2)[C@@H](C)O)C(C)C)CCC(=O)NCCCC[C@@H](C(=O)N[C@H](C(N)=O)[C@@H](C)O)NC1=O) [[PLA6, D9, E16, E24K28(lactam)]G(6~29)]",GLP-1 EC50,GLP-1 receptor [3],289 nM
same,Glucagon IC50,glucagon receptor [4],22 nM
